Data published in patent publication US20030235900A1.

Target: Strep-Tactin Macroprep resin (Cat. No. 2-1505-010; IBA GmbH)
Assay: batch binding to Strep-Tactin Macroprep resin, 1 hour in cold room; binding followed by MTSP10 activity left in the supernatant

percent of activity retained by the resin: 50 to 70%
B1: MTSP10-ST2 C122S (protease domain of human MTSP10, C122S mutant, with C-terminal Strep-tag II, expressed in Pichia pastoris) (enzyme)
chain: RIIGGTDTLEGGWPWQVSLHFVGSAYCGASVISREWLLSAAHCFHGNRLSDPTPWTAHLGMYVQGNAKFVSPVRRIVVHEYYNSQTFDYDIALLQLSIAWPETLKQLIQPISIPPTGQRVRSGEKCWVTGWGRRHEADNKGSLVLQQAEVELIDQTLCVSTYGIITSRMLCAGIMSGKRDACKGDSGGPLSCRRKSDGKWILTGIVSWGHGCGRPNFPGVYTRVSNFVPWIGGWSHPQFEK
